{"source": "patent US20090022663A1", "biological_target": "161P2F10B variant 1 (human 161P2F10B), on the cell surface (human) (UniProt O14638)", "assay": "FACS titration on KU-812 cells, one site binding fit", "data": [{"binder": "H16-1.92.1.1 (antibody, part only; not given: light chain, V domains shown, part only) VH: EVLLVESGPGLVKPSETLSLTCTVSGGSISSSSYFWGWIRQPPGKGLEWIGSIYYSGNTYYNPSLKSRVTISVDTSKNRFSLKLSSVTAADTAVYCCASATTVTTAFDIWGQGTMVTVSSASTKGPSVFPLAPSS", "values": [{"measurement": "Kd", "result": 4.73, "unit": "nM"}]}]}
